Laboratory results as given in patent publication US20150023967A1 (published 2015).

Experiments:
[1] = target: BCMA 101 x CD3; assay: SPR (Biacore)
[2] = target: BCMA 102 x CD3; assay: SPR (Biacore)

Kd [1]: 0.5 nM
Kd [2]: 0.6 nM
B1: Human BCMA (other)
chain (part 1 of 2): MLQMAGQCSQNEYFDSLLHACIPCQLRCSSNTPPLTCQRYCNASVTNSVKGTNASGGGGSEAHKSEIAHRYNDLGEQHFKGLVLIAFSQYLQKCSYDEHAKLVQEVTDFAKTCVADESAANCDKSLHTLFGDKLCAIPNLRENYGELADCCTKQEPERNECFLQHKDDNPSLPPFERPEAEAMCTSFKENPTTFMGHYLHEVARRHPYFYAPELLYYAEQYNEILTQCCAEADKESCLTPKLDGVKEKALVSSVRQRMKCSSMQKFGERAFKAWAVARLSQTFPNADFAEITKLATDLTKVNKECCHGDLLECADDRAELAKYMCENQATISSKLQTCCDKPLLKKAHCLSEVEHDTMPADLPAIAADFVEDQEVCKNYAEAKDVFLGTFLYEYSRRHPDYSVSLLLRLAKKYEATLEKCCAEANPPACYGTVLAEFQPLVEEPKNLVKTNCDLYEKLGEYGFQNAILVRYTQKAPQVSTPTLVEAARNLGRVGTKCCTLPEDQRLPCVEDYLSAILNRVCLLHEKTPVSEHVTKCCSGSLVERRPCFSALTVDETYVPKEFKAETFTFHSDICTLPEKEKQIKKQTALAELVKHKPKATAEQLKTVMDDFAQFLDTCCKAADKDTCFSTEGPNLVTRCKDALA
chain (part 2 of 2): SGHHGGHHGGHH
